Assay results as given in US20210292396A1.
Residue numbers refer to the chain shown, from its start.

B1: ePGT121.15.H1.L1 (antibody, V domains shown)
VH: QMQLQESGPGLVKPGETLSLTCSVSGASISSSYWSWLRETPGKGLEWIGYTHHSGDTNYAPSLKSRVHLGLHPSKNQVSLSLTSVTAADTAVYYCARTLHGRRIYGVVAFNEWFTYFYWEVWGNGTQVTVSS
VL: SDISVAPGETVRISCGGESIGSRAVQWYQHRAGQAPKLIIYNNQDRPPGIPERFSGSPDIDFGTTATLTITNVEAGDEATYYCHIWDSRRPTNWVFGGGTTLTVL
B2: ePGT121.15.H6.L1 (antibody, V domains shown)
VH: B1 VH with W113F, N124K
VL: B1 VL

Experiments:
[1] = biological target: HIV Env of the 106-virus cross-clade panel (Table 5); test: cell-based or functional assay
[2] = biological target: HIV Env of the 113-member cross-clade virus panel (Table 6); test: cell-based or functional assay

Binder	% Breadth [1]	Median IC50 [1]	breadth of neutralization at an IC80 of 0.01 microg/ml [1]	median IC80, 106-virus panel [1]	neutralization breadth (IC80), 106-virus panel [1]	Breadth [2]	GeoMean [2]
B1	75%	1 ng/mL	50%	9.3 ng/mL	69%	76%	0.0061
B2						77%	0.0048
